Measurements: US20040043468A1

Molecular target: eIF4E
Assay: cell-based or functional assay

Photinus luciferase activity from the monocistronic PM construct in B104 cells, as a percentage of the activity with a control expression plasmid: 45 % of control
Photinus luciferase activity from the β-globin 5′ UTR monocistronic construct in B104 cells, as a percentage of the activity with a control expression plasmid: 43 % of control
Substance: dominant negative form of the eIF4E binding protein 4E-BP1 (from UniProt Q13541 1-118)
